Source: the nanobody polyreactivity screen of Harvey et al. (2022)

Test: yeast display, Sf9 membrane polyspecificity reagent, FACS + sequencing; frameworks hold sequencing errors
Outline: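 After 36–48 hours of galactose induction, yeast (Saccharomyces cerevisiae BJ5465) displaying a synthetic nanobody library were stained at 4 °C for 1 hour with 10% biotinylated, detergent-solubilized Sf9 membrane reagent. Streptavidin microbeads enriched the stained cells before FACS sorting into low and high (top ~1%) gates on anti-HA and streptavidin fluorescence. Each clone's polyreactivity label reflects its gate of origin.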
In the case of “QVQLVESGGGLVQAGGSLRLSCAASGITFKYYVMGWYRQAPGKERELVAAISYDGGSTYYADSVKGRFTISRDNAKNTVYLQMNSLKPEDTAVYYCAAPVWIDGDESGYEYDYWGQGTQVTVSS”, the “polyreactivity (PSR sort gate)” value is reported as “low polyreactivity”.
In the case of “QVQLVESGGGLVQAGGSLRLSCAASGITFLAYAMGWYRQAPGKERELVAGISKSGGNTYYADSVKGRFTISRDNAKNTVYLQMNSLKPEDTAVYYCAARYRLTYFDANYRYGYWGQGTQVTVSS”, the “polyreactivity (PSR sort gate)” value is reported as “high polyreactivity”.
For “QVQLVESGGGLVQAGGSLRLSCAASGITFLPYAMGWYRPAPGKERELVAAITRGGGSTYADSVKGRFTISRDNAKNTVYLQMYSLKPEDTAVYYCNAKGRGWTAQYDYWGQGTQVTVSS”, the “polyreactivity (PSR sort gate)” value was “low polyreactivity”.
With “QVQLVESGGGLVQAGGSLRLSCAASGITFLSNAMGWYRQAPGKERELVAAIDWRGDSTYYADSVKGRFTISRDNAKNTGYLQMNRLKPEDTAVYYCNADISGSGQWDGYDYWGQGTQVTVSS” the “polyreactivity (PSR sort gate)” value was “low polyreactivity”.
In the case of “QVQLVESGGGLVQAGGSLRLSCAASGITFNGYVMGWYRQAPGKERELVAAITSGGSTNYADSVKGRFTISRDNAKNTVYLQMNSLKPEDTAVYYCAARYKAYWQLYDYWGQGTQVTVSS”, the “polyreactivity (PSR sort gate)” value is reported as “high polyreactivity”.
In the case of “QVQLVESGGGLVQAGGSLRLSCAASGITFNHYTMGWYRQAPGKERELVAAISSRGSTTYYADSVKGRFTISRDNAKNTVYLQMNSLKPEDTAVYYCAARYPTYYRPRYRGRPGYDYWGKGTQVTVSS”, the “polyreactivity (PSR sort gate)” value is reported as “high polyreactivity”.
With “QVQLVESGGGLVQAGGSLRLSCAASGITFNLYAMGWYRQAPGKERELVASINSGGSPYYADSVKGRFTISRDNAKNTVYLQMNSLKPEDTAVYYCAAETSYYYRGYWKSYDYWGQGTQVTVSS” the “polyreactivity (PSR sort gate)” value was “high polyreactivity”.
For “QVQLVESGGGLVQAGGSLRLSCAASGITFNPYGMGWYRPAPGKERELVADITCGGITDYADCVKGRFTIARDNAKNTVYLHKNSLKPEETAVYYCATGDLFVYYWCYVVRLYDYWGQGTQVTVSS”, the “polyreactivity (PSR sort gate)” value was “low polyreactivity”.
With “QVQLVESGGGLVQAGGSLRLSCAASGITFNRYAMGGYRQAPGKERELVASITSGGRTNYADSVKGRFTISRDNAKNTVYLQMNSLKPEDTAVYYCAVRWVRSRSSSLRKANYYWGQGTIVTVSS” the “polyreactivity (PSR sort gate)” value was “high polyreactivity”.
For “QVQLVESGGGLVQAGGSLRLSCAASGITFNYYAMGWYRQAPGKERELVAAITDDGNTNYADSVKGRFTISRDNAKNTVYLQMNSLKPEDTAVYYCAADLLGIPDYEYWGQGTQVTVSS”, the “polyreactivity (PSR sort gate)” value was “low polyreactivity”.
With “QVQLVESGGGLVQAGGSLRLSCAASGITFPDYAMGWYRQAPGKERELVATISSSGGNTYYADSVKGRFTISRDNAKNTVYLQMNSLKPEETAVYYCATVSYYCGYDYWGQGTQVTVSS” the “polyreactivity (PSR sort gate)” value was “low polyreactivity”.
With “QVQLVESGGGLVQAGGSLRLSCAASGITFPFYAMGWYRQAPGKERELVAAISRRGGRTYYADSVKGRFTISRDNAKNTVYLQMNSLKPEDTAVYYCAAANGSADGDYWGQGTQVTVSS” the “polyreactivity (PSR sort gate)” value was “high polyreactivity”.
In the case of “QVQLVESGGGLVQAGGSLRLSCAASGITFPLYVMGWSRQAPGKERELVAAISASGGSTYADSVKGRFTISRDNAKNTVYLQMNSLKPEDTAVYYCNADVYVGYEYDYWGQGTQVTVSS”, the “polyreactivity (PSR sort gate)” value is reported as “low polyreactivity”.
For “QVQLVESGGGLVQAGGSLRLSCAASGITFPQYAMGWYRQAPGKERELVAAITSGGSTNYADSVKGRFTISRDNGKNTVYLQMNSLKPEDTGVYYCNTAGYYWLHYTMDYWGQGTQVTVSS”, the “polyreactivity (PSR sort gate)” value was “high polyreactivity”.
With “QVQLVESGGGLVQAGGSLRLSCAASGITFPRYAMGWYRQAPGKERELVATITRSGGGTYYADSVKGRFTISRDNAKNTVNLQMNSLKPEDTAVYYCAAGALQRGVYGYGYWGQGTQVTVSS” the “polyreactivity (PSR sort gate)” value was “high polyreactivity”.
With “QVQLVESGGGLVQAGGSLRLSCAASGITFPSYVMGWYRQAPGKEREFVAAITGSAGSTYYADSVKGRFTISRDNAKYTVYLQMNSLKPEDTAVYYCAARVRYVNPKYYYWGQGTQVTVSS” the “polyreactivity (PSR sort gate)” value was “high polyreactivity”.
For “QVQLVESGGGLVQAGGSLRLSCAASGITFPYYAMGWYRQAPGKERELVAAISDGGSTNYADSVKGRFTISRDNAKNTVYLQMNSLKPEDTAVYYCAADYRYLFDYWGQGTQVTVSS”, the “polyreactivity (PSR sort gate)” value was “high polyreactivity”.
For “QVQLVESGGGLVQAGGSLRLSCAASGITFQGNAMGWYRQAPGKERELVAAISSGGNTHYADSVKGRFTISRDNAKNTVYLQMNSLKPEDTAVYYCAASYYYTYYWGQGTQVTVSS”, the “polyreactivity (PSR sort gate)” value was “low polyreactivity”.
With “QVQLVESGGGLVQAGGSLRLSCAASGITFQKNAMGWDRPAPGKEMEWVAGITWRGSTYYADSVKGRFTISRDNAKNTVYLQMNSLKPEETAVYYCAADPFYWYRSVRGEYWGQGTQVTVSS” the “polyreactivity (PSR sort gate)” value was “low polyreactivity”.
With “QVQLVESGGGLVQAGGSLRLSCAASGITFQKNAMGWYRKAPGKERELVAGITWRGSTYYADSVKGRFTISRDNAKNTVYLQMNSLKPEDTAVYYCAADPFYWYRSFRGEYWGKGTQVTVSS” the “polyreactivity (PSR sort gate)” value was “low polyreactivity”.
In the case of “QVQLVESGGGLVQAGGSLRLSCAASGITFQRNAMGWYRQAPGKERELVAVITSIGGRTYYADSVKGRFTISRDNAKNTVYLQMNSLKPEDTAVYYCNAASATRSADWYDYDYWGQGTQVTVSS”, the “polyreactivity (PSR sort gate)” value is reported as “high polyreactivity”.
For “QVQLVESGGGLVQAGGSLRLSCAASGITFQRYAMGWYRQAPGKERELVAAISTNGGTTYYADSVKGRFTISRDNAKNTVYLQMNSLKPEDTAVYYCNAESGYVYYFRYNYLGQGTQVTVSS”, the “polyreactivity (PSR sort gate)” value was “high polyreactivity”.
In the case of “QVQLVESGGGLVQAGGSLRLSCAASGITFQRYAMGWYRQAPGKERELVAAITRGGSTNYADSVKGRFTISRDNAKNTVYLQMNSLKPEDTAVYYCAAGYKITSVYGFYYWGQGTQVTVSS”, the “polyreactivity (PSR sort gate)” value is reported as “high polyreactivity”.
In the case of “QVQLVESGGGLVQAGGSLRLSCAASGITFQRYVMGWYRQAPGKERELVAAISFSGSSTYYADSVKGRFTISRDNAKNTVYLQMNSLKPEDTAVYYCAADGSVPKYVPYPRYYGYGYWGQGTQVTVSS”, the “polyreactivity (PSR sort gate)” value is reported as “high polyreactivity”.
In the case of “QVQLVESGGGLVQAGGSLRLSCAASGITFQTYAMGWYRQAPGKERELVAAIRWGGGTTYYADSVKGRFTISRDNAKNTVYLQMNSLKPEDTAVYYCAARTYYRRGGRVDYWGQGTQVTVSS”, the “polyreactivity (PSR sort gate)” value is reported as “high polyreactivity”.
In the case of “QVQLVESGGGLVQAGGSLRLSCAASGITFQTYTMGWYRQAPGKERELVATISWNGGSTYYADSVKGRFTISRDNAKNTVYLQMNSLKPEDNAVYDCATGKWGYFRYNYWGQGTQVTVSS”, the “polyreactivity (PSR sort gate)” value is reported as “high polyreactivity”.
For “QVQLVESGGGLVQAGGSLRLSCAASGITFQYNAMGWYRQAPGKERELVAAINYSGGSTYYADSVKGRYTISRDNAKNTVYLQMNSLKPEDTAVYYCAKDGTDYSHRPGKWEFDSWGQGTQVSVSS”, the “polyreactivity (PSR sort gate)” value was “low polyreactivity”.
In the case of “QVQLVESGGGLVQAGGSLRLSCAASGITFRANAMGWYRQAPGKERELVAAISARGGSTYYADSVKGRFTISRDNAKNTVYLQMNSLKPEDTAVYYCNAVAYRSRSEYDYWGQGTQVTVSS”, the “polyreactivity (PSR sort gate)” value is reported as “high polyreactivity”.
For “QVQLVESGGGLVQAGGSLRLSCAASGITFRDYAMGWYRQAPGKERELVAAISTRGVRTYYADSVKGRFTISRDNAKNTVYLQMNSLKPEDTAVYYCAARSVTYWWVGYEFYYWGQGTQVTVSS”, the “polyreactivity (PSR sort gate)” value was “high polyreactivity”.
For “QVQLVESGGGLVQAGGSLRLSCAASGITFRFYAMGWYRQAPGKERELVAVISRGGGTTYYADSVKGRFTISRDNAKNTVYLQMNSLKPADTSVYYCAADYYYVQSELGYDYWGQGTQVTVSS”, the “polyreactivity (PSR sort gate)” value was “high polyreactivity”.
In the case of “QVQLVESGGGLVQAGGSLRLSCAASGITFRHNAMGWYRQAPGKERELVAAISRRTYYSDSVKGRFTISRDNAKNTVYLQMNSLKPEDTAVYYCAKDVDYVSDSPYDYWGQGTQVTVSS”, the “polyreactivity (PSR sort gate)” value is reported as “low polyreactivity”.
In the case of “QVQLVESGGGLVQAGGSLRLSCAASGITFRLYAMGWYRQAPGKERELVAAITGSGGRTYYADSVKGRFTISRDNAKNTVYLQMNSLNPEDTAVFYCNVYPPYAMDYWGQGTQVTVSS”, the “polyreactivity (PSR sort gate)” value is reported as “high polyreactivity”.
In the case of “QVQLVESGGGLVQAGGSLRLSCAASGITFRRNAMGWYRQAPGKERELFAGITRGGTTKYADSVKGRFTISRDNAKNTVYLQMNSLKPEDTAVYFCAAKDNSYGGPPQFGYWGQGTQVTVSS”, the “polyreactivity (PSR sort gate)” value is reported as “high polyreactivity”.
For “QVQLVESGGGLVQAGGSLRLSCAASGITFRRYAMGWYRPAPGKERELVASISRGGSTYYADSVKGRFTISRDNAKNTVYLQMNSLTPEDTAVYYCAADVAGRYDYWGQGTQVTVSS”, the “polyreactivity (PSR sort gate)” value was “high polyreactivity”.
In the case of “QVQLVESGGGLVQAGGSLRLSCAASGITFRRYAMGWYRQAPGKERELVASITSGGSTNYADSVKGRFTISRDNAKNTVYLQMNSLKPEDTAVYYCAADSRWGMDYWGQGTQVTVSS”, the “polyreactivity (PSR sort gate)” value is reported as “high polyreactivity”.
For “QVQLVESGGGLVQAGGSLRLSCAASGITFRTNTMGWYRQAPGKEREFVAAISSNGGRTYYADSVKGRFTISRDNAKNTVYLQMNSLKPEDTAVYYCNARTKHRYEYDYWGQGTQVTVSS”, the “polyreactivity (PSR sort gate)” value was “high polyreactivity”.
In the case of “QVQLVESGGGLVQAGGSLRLSCAASGITFRTYAMGWNRQAPGKERELVAAITRRGGSTYYADSVKGRFTISRDNAKNTVYLQMNSLKPEDTAVYYCAVRHNGIQASVGYDYWGQGTQVTVSS”, the “polyreactivity (PSR sort gate)” value is reported as “high polyreactivity”.
With “QVQLVESGGGLVQAGGSLRLSCAASGITFRVNTMGWYRKAPGKETEFVATISYSGDSTYYADSVKGRFTISRDNAKNTVYLQMNSLKPEDTAVYYCATELVFYGRDYWGQGTQVTVSS” the “polyreactivity (PSR sort gate)” value was “low polyreactivity”.
In the case of “QVQLVESGGGLVQAGGSLRLSCAASGITFRWNAMGWYRQAPGKERELVAAITTRGGGTYYADSVKGRFTISRDNAKNTVYLQMNSLKPEDTAVYYCAAKKSRYPYNYWGQGTQVTVSS”, the “polyreactivity (PSR sort gate)” value is reported as “high polyreactivity”.
With “QVQLVESGGGLVQAGGSLRLSCAASGITFRWYAMGWYRQAPGKERELVAAIRSGSSTYYADSVKGRFTISRDNAKNTVYLQMNSLKPEDPAVYYCNARPWYSWGVDYDYWGQGTQVTVSS” the “polyreactivity (PSR sort gate)” value was “low polyreactivity”.
With “QVQLVESGGGLVQAGGSLRLSCAASGITFRWYAMGWYRQAPGKERELVAAISSSGGSTYYADSVKGRFTISRDNAKNTVYLQMNSLKPEVTAVYYCAAYTSYASDYWGQGTQVTVSS” the “polyreactivity (PSR sort gate)” value was “high polyreactivity”.
